Key:
Format in all cases: biochemical
[1] = Product inhibition of H-Ala-pNA hydrolysis by amino acid inhibitor mix; settings: pH 9.0, 30° C.
Description: Sigma cat # D2650). […] […] and proline were dissolved in DMSO. All other amino acids were dissolved in buffer. […] The reaction was started by adding 20 μL substrate. Only one substrate concentration was used per plate.

[2] = tested on: soy protein isolate (SPI); assay: Degree of hydrolysis of pre-hydrolysed soy protein isolate; settings: 50° C., 20 hr
Description: (§1) The degree of hydrolyses (DH) describes the relative amount of cleaved peptides bounds compared to an acid hydrolyses of the same amount of protein conducted e.g. in 6 M HCL at ˜120° C. for ˜24 h. The higher the DH can therefore be applied to assess the efficiency of amino acid liberation of a general PepN such as a PepN 1 or a PepN 2 type. The cell free culture broth was concentrated (10 kDa cut-off, Sartorius, Göttingen, Germany) and desalted applying a disposal desalting column (PD10, GE, Munchen, Germany) as described by the manufacturer. As substrates were pre-hydrolysed 10% (w/w) Na-caseinate (DMK, Germany), whey protein isolate (WPI; Arla, Viby, Denmark), soy protein isolate (SPI; SUPRO® 760, DuPont, Brabrand, Denmark) and gluten suspensions were applied. The pre-hydrolysis was conducted with 1% (w/wprotein) of FOODPRO® Alkaline Protease, 1% (w/wprotein) FOODPRO® PNL for the Na-Caseinate, the WPI as well as the SPI suspension. All pre-hydrolyses were conducted at 55° C. for 18 h followed by an inactivation step at 95° C. for 20 min. Each applied PepN 2 has been inactivated at 95 C for 15 min as a control of the elimination of any carryover of amino acids from the culture broth to the final hydrolyses as well as for the sufficient inactivation of the applied endopeptidases. The hydrolyses were conducted in a 96-well micro titer plate format and consisted of 150 μL of the pre-hydrolyzed protein suspension combined with 50 μL of a PepN 2 stock solution as indicated in Table 1 below. The hydrolyses were conducted at 50° C. for 20 hr, subsequently, the hydrolysis were stopped by the addition of 20 μL 2 M TCA (Trichloroacetic acid, Sigma-Aldrich, Schnelldorf, Germany). The efficiency of the amino acid liberation of the PepN 2 types from Neosartorya fischeri and Aspergillus clavatus can be seen in Table 1 (B) and (A). […] For the gluten hydrolyses, an increased DH was noticed in the protein range from 0.02-0.3 mg/mL PepN 2.

[3] = tested on: peptide WHWLQLKPGQPMY (SEQ ID NO:26); assay: Hydrolysis of proline containing peptide, LC-MS; settings: peptide 1 mg/mL, aminopeptidase 1 ug/mL, CPB-Buffer, 55° C.; FIG. 5-7
Description: The peptide […] (SEQ ID NO:26) was hydrolysed with TRI03 and TRI035. The peptide (1 mg/mL) was incubated with 1 ug/mL of the aminopeptidase in 20 mM CPB-Buffer (20 mM Citric acid, 20 mM Phosphate. 20 mM Boric acid) at 55° C. Aliquots (50 μL) were stopped with 50 rel 5% TFA at the indicated time points and subjected to LC-MS analysis.
Capillary LC-MS/MS analyses were performed using an Agilent 1100 LC system (Agilent Technologies) interfaced to a LTQ Orbitrap Classic hybrid mass spectrometer (Thermo Scientific, Bremen, Germany). Samples were loaded onto a 15 cm Phenomenix Jupiter 4μ Proteo 90A, C4 analytical column. Separation was performed at a flow rate of 16 μL/min using a 10 min gradient of 0-40% Solvent B H2O/CH3CN/HCOOH (50/950/0.65 v/v/v) into the IONMAX® ion source (Thermo Scientific, San Jose). The LTQ Orbitrap Classic instrument was operated in a data-dependent MS/MS mode. The peptide masses were measured by the Orbitrap (MS scans were obtained with a resolution of 60 000 at m/z 400), and up to 2 of the most intense peptide m/z were selected and subjected to fragmentation using CID in the linear ion trap (LTQ). Dynamic exclusion was enabled with a list size of 500 masses, duration of 40 s, and an exclusion mass width of ±10 ppm relative to masses on the list.
The RAW files were accessed with the program Skyline 2.6.0.7176 (MacLean, B., et al., “Skyline: an open source document editor for creating and analyzing targeted proteomics experiments”, Bioinformatics, 2010, 26(7): p. 966-8) which uses the MS1 intensities to build chromatograms (Schilling, B., et al., “Platform-independent and label-free quantitation of proteomic data using MS1 extracted ion chromatograms in skyline: application to protein acetylation and phosphorylation”, Mol Cell Proteomics, 2012. 11(5): p. 202-14). The precursor isotopic import filter was set to a count of three, (M, M+1, and M+2) at a resolution of 60,000 and the most intense charge state was used. Peptide sequences of the substrate as well as cleavage products were typed into Skyline and intensities were calculated in each sample. […]

[4] = tested on: gluten; assay: Degree of hydrolysis of pre-hydrolysed gluten; settings: 50° C., 20 hr
Description: as §1

[5] = tested on: Na-caseinate; assay: Degree of hydrolysis of pre-hydrolysed Na-caseinate; settings: Casein, 50° C., 20 hr
Description: as §1

[6] = tested on: whey protein isolate (WPI); assay: Degree of hydrolysis of pre-hydrolysed whey protein isolate; settings: 50° C., 20 hr
Description: as §1

[7] = inactivated enzyme at the highest conc.

B1: TRI035: fungal aminopeptidase type-2 (pepN_2), NCBI XP_001273779 from Aspergillus clavatus NRRL 1 (protein)
chain: MQTFGAFLVSFLAASGLAAANAPGGPGGHGRKLPVNPKTFPNEIRLKDLLHGSQKLEDFAYAYPERNRVFGGQAHLDTVNYLYRELKKTGYYDVYKQPQVHQWTRADQSLTLGGDSIQASTMTYSPSVNVTAPLSLVSKLGCAEGDYSADVKGKIALVSRGECSFAQKSVLSAKAGAVATIVYNNVDGSLAGTLGGATSELGPYSPIIGITLAAGQDLVARLQAAPTEVSLWIDSKVENRTTYNVIAQTKGGDPNNVVALGGHTDSVENGPGINDDGSGVISNLVVAKALTRYSVKNAVRFCFWTAEEFGLLGSNYYVDNLSPAELAKIRLYLNFDMIASPNYALMIYDGDGSAFNLTGPPGSAQIESLFENYYKSIKQGFVPTAFDGRSDYEGFILKGIPAGGVFTGAESLKTEEQARLFGGQAGVALDANYHAKGDNMTNLNHKAFLINSRATAFAVATYANNLSSIPPRNATVVKRESMKWTKREEPHTHGADTGCFASRVKE
modifications: Synthetic peptide with leader sequence
- product inhibition compared to TRI063 from A. oryzae [1]: less inhibited by product
- Degree of hydrolysis ([2]; PepN 2 stock 0.02 mg/mL): 11%
- Degree of hydrolysis ([2]; PepN 2 stock 0.03 mg/mL): 12%
- Degree of hydrolysis ([2]; PepN 2 stock 0.04 mg/mL): 13%
- Degree of hydrolysis ([2]; PepN 2 stock 0.05 mg/mL): 14%
- Degree of hydrolysis ([2]; PepN 2 stock 0.1 mg/mL): 16%
- Degree of hydrolysis ([2]; PepN 2 stock 0.15 mg/mL): 15%
- Degree of hydrolysis ([2]; PepN 2 stock 0.2 mg/mL): 17%
- Degree of hydrolysis ([2]; PepN 2 stock 0.25 mg/mL): 21%
- Degree of hydrolysis ([2]; PepN 2 stock 0.3 mg/mL): 21%
- Degree of hydrolysis ([2]; PepN 2 stock 0.35 mg/mL): 21%
- Degree of hydrolysis [2, 7]: 6%
- hydrolysis of WHWLQLKPGQPMY to KPGQPMY and further down to QPMY [3]: can hydrolyze
- Degree of hydrolysis ([4]; PepN 2 stock 0.02 mg/mL): 12%
- Degree of hydrolysis ([4]; PepN 2 stock 0.03 mg/mL): 14%
- Degree of hydrolysis ([4]; PepN 2 stock 0.04 mg/mL): 15%
- Degree of hydrolysis ([4]; PepN 2 stock 0.05 mg/mL): 15%
- Degree of hydrolysis ([4]; PepN 2 stock 0.1 mg/mL): 17%
- Degree of hydrolysis ([4]; PepN 2 stock 0.15 mg/mL): 18%
- Degree of hydrolysis ([4]; PepN 2 stock 0.2 mg/mL): 17%
- Degree of hydrolysis ([4]; PepN 2 stock 0.25 mg/mL): 19%
- Degree of hydrolysis ([4]; PepN 2 stock 0.3 mg/mL): 19%
- Degree of hydrolysis ([4]; PepN 2 stock 0.35 mg/mL): 22%
- Degree of hydrolysis [4, 7]: 4%
- Degree of hydrolysis ([5]; PepN 2 stock 0.02 mg/mL): 16%
- Degree of hydrolysis ([5]; PepN 2 stock 0.03 mg/mL): 19%
- Degree of hydrolysis ([5]; PepN 2 stock 0.04 mg/mL): 19%
- Degree of hydrolysis ([5]; PepN 2 stock 0.05 mg/mL): 20%
- Degree of hydrolysis ([5]; PepN 2 stock 0.1 mg/mL): 21%
- Degree of hydrolysis ([5]; PepN 2 stock 0.15 mg/mL): 23%
- Degree of hydrolysis ([5]; PepN 2 stock 0.2 mg/mL): 24%
- Degree of hydrolysis ([5]; PepN 2 stock 0.25 mg/mL): 24%
- Degree of hydrolysis ([5]; PepN 2 stock 0.3 mg/mL): 24%
- Degree of hydrolysis ([5]; PepN 2 stock 0.35 mg/mL): 27%
- Degree of hydrolysis [5, 7]: 8%
- Degree of hydrolysis ([6]; PepN 2 stock 0.02 mg/mL): 19%
- Degree of hydrolysis ([6]; PepN 2 stock 0.03 mg/mL): 20%
- Degree of hydrolysis ([6]; PepN 2 stock 0.04 mg/mL): 21%
- Degree of hydrolysis ([6]; PepN 2 stock 0.05 mg/mL): 22%
- Degree of hydrolysis ([6]; PepN 2 stock 0.1 mg/mL): 23%
- Degree of hydrolysis ([6]; PepN 2 stock 0.15 mg/mL): 27%
- Degree of hydrolysis ([6]; PepN 2 stock 0.2 mg/mL): 25%
- Degree of hydrolysis ([6]; PepN 2 stock 0.25 mg/mL): 28%
- Degree of hydrolysis ([6]; PepN 2 stock 0.3 mg/mL): 29%
- Degree of hydrolysis ([6]; PepN 2 stock 0.35 mg/mL): 29%
- Degree of hydrolysis [6, 7]: 8%

From patent US11473073B2, “Aminopeptidases for protein hydrolyzates” (DUPONT NUTRITION BIOSCIENCES APS, priority 2015, dated 2022)
